In patent US20140271607A1:

Columns and labels:
[1] = target: FX (blood coagulation factor X); test: cell-based or functional assay
[2] = target: FX (blood coagulation factor X)
[3] = target: T1, rsTF (recombinant soluble tissue factor), P13726
T1 chain: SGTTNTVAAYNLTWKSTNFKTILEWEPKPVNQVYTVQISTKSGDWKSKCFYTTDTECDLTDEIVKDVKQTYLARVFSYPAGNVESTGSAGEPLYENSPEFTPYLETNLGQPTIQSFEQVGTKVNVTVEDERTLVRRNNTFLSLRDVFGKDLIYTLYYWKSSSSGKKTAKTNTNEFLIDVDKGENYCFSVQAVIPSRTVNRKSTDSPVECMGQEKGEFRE

[4] = target: rsTF (recombinant soluble tissue factor) (UniProt P13726); test: cell-based or functional assay

FacVII-ATKAVC-40 kDa PEG conjugate (C-terminal PEGylated) (from UniProt P08709 1-466) (enzyme)
EC50 (ng/mL), chromogenic assay (COASET) [1]: 6.06 ng/mL

FacVII-ATKAVC (FacVII derivative with SOD1 residues 1-6, ATKAVC, at the C-terminus) (from UniProt P08709 1-466) (enzyme)
EC50 (ng/mL), chromogenic assay (COASET) [1]: 1.75 ng/mL
EC50 (ng/mL), chromogenic assay (COASET), Run 1 [1]: 1.36 ng/mL
EC50 (ng/mL), chromogenic assay (COASET), Run 2 [1]: 1.16 ng/mL

B1: blood coagulation factor VII (Factor VII, FacVII), native (protein)
chain: AVFVTQEEAHGVLHRRRRANAFLEELRPGSLERECKEEQCSFEEAREIFKDAERTKLFWISYSDGDQCASSPCQNGGSCKDQLQSYICFCLPAFEGRNCETHKDDQLICVNENGGCEQYCSDHTGTKRSCRCHEGYSLLADGVSCTPTVEYPCGKIPILEKRNASKPQGRIVGGKVCPKGECPWQVLLLVNGAQLCGGTLINTIWVVSAAHCFDKIKNWRNLIAVLGEHDLSEHDGDEQSRRVAQVIIPSTYVPGTTNHDIALLRLHQPVVLTDHVVPLCLPERTFSERTLAFVRFSLVSGWGQLLDRGATALELMVLNVPRLMTQDCLQQSRKVGDSPNITEYMFCAGYSDGSKDSCKGDSGGPHATHYRGTWYLTGIVSWGQGCATVGHFGVYTRVSQYIEWLQKLMRSEPRPGVLLRAPFP
Relative activity, %, chromogenic assay (COASET) [2]: 100%
Relative activity, %, chromogenic assay (COASET), Run 1 [2]: 100%
Relative activity, %, chromogenic assay (COASET), Run 2 [2]: 100%
EC50 (ng/mL), chromogenic assay (COASET) [1]: 1.38 ng/mL
EC50 (ng/mL), chromogenic assay (COASET), Run 1 [1]: 1.62 ng/mL
EC50 (ng/mL), chromogenic assay (COASET), Run 2 [1]: 1.67 ng/mL

B2: FacVII-40 kDa PEG (N-terminal PEGylated FacVII) (protein)
chain: AVFVTQEEAHGVLHRRRRANAFLEELRPGSLERECKEEQCSFEEAREIFKDAERTKLFWISYSDGDQCASSPCQNGGSCKDQLQSYICFCLPAFEGRNCETHKDDQLICVNENGGCEQYCSDHTGTKRSCRCHEGYSLLADGVSCTPTVEYPCGKIPILEKRNASKPQGRIVGGKVCPKGECPWQVLLLVNGAQLCGGTLINTIWVVSAAHCFDKIKNWRNLIAVLGEHDLSEHDGDEQSRRVAQVIIPSTYVPGTTNHDIALLRLHQPVVLTDHVVPLCLPERTFSERTLAFVRFSLVSGWGQLLDRGATALELMVLNVPRLMTQDCLQQSRKVGDSPNITEYMFCAGYSDGSKDSCKGDSGGPHATHYRGTWYLTGIVSWGQGCATVGHFGVYTRVSQYIEWLQKLMRSEPRPGVLLRAPFP
Relative activity, % (compared to FacVII), chromogenic assay (COASET) [2]: 11.3%
EC50 (ng/mL), chromogenic assay (COASET) [1]: 12.2 ng/mL

B3: FacVIIa-ATKAVC (activated FacVII-ATKAVC derivative) (protein)
chain: AVFVTQEEAHGVLHRRRRANAFLEELRPGSLERECKEEQCSFEEAREIFKDAERTKLFWISYSDGDQCASSPCQNGGSCKDQLQSYICFCLPAFEGRNCETHKDDQLICVNENGGCEQYCSDHTGTKRSCRCHEGYSLLADGVSCTPTVEYPCGKIPILEKRNASKPQGRIVGGKVCPKGECPWQVLLLVNGAQLCGGTLINTIWVVSAAHCFDKIKNWRNLIAVLGEHDLSEHDGDEQSRRVAQVIIPSTYVPGTTNHDIALLRLHQPVVLTDHVVPLCLPERTFSERTLAFVRFSLVSGWGQLLDRGATALELMVLNVPRLMTQDCLQQSRKVGDSPNITEYMFCAGYSDGSKDSCKGDSGGPHATHYRGTWYLTGIVSWGQGCATVGHFGVYTRVSQYIEWLQKLMRSEPRPGVLLRAPFPATKAVC
Potency (IU/mL), clotting assay (StaclotVIIa-rTF) [3]: 16700 IU/mL
Specific activity (IU/mg as FacVIIa), clotting assay (StaclotVIIa-rTF) [3]: 46100 IU/mg

B4: FacVIIa-ATKAVC-PEG-Fc complex (protein, part only; not given: Fc region and PEG linker, not shown: a dimerising Fc or GST)
chain: MVSQALRLLCLLLGLQGCLAAVFVTQEEAHGVLHRRRRANAFLEELRPGSLERECKEEQCSFEEAREIFKDAERTKLFWISYSDGDQCASSPCQNGGSCKDQLQSYICFCLPAFEGRNCETHKDDQLICVNENGGCEQYCSDHTGTKRSCRCHEGYSLLADGVSCTPTVEYPCGKIPILEKRNASKPQGRIVGGKVCPKGECPWQVLLLVNGAQLCGGTLINTIWVVSAAHCFDKIKNWRNLIAVLGEHDLSEHDGDEQSRRVAQVIIPSTYVPGTTNHDIALLRLHQPVVLTDHVVPLCLPERTFSERTLAFVRFSLVSGWGQLLDRGATALELMVLNVPRLMTQDCLQQSRKVGDSPNITEYMFCAGYSDGSKDSCKGDSGGPHATHYRGTWYLTGIVSWGQGCATVGHFGVYTRVSQYIEWLQKLMRSEPRPGVLLRAPFPATKAVC
modifications: C-terminal cysteine linked to the maleimide end of 10 kDa PEG
Potency (IU/mL), clotting assay (StaclotVIIa-rTF) [4]: 1990 IU/mL
Residual activity, % (compared to FacVIIa-ATKAVC), clotting assay (StaclotVIIa-rTF) [4]: 44.7%
Specific activity (IU/mg as FacVIIa), clotting assay (StaclotVIIa-rTF) [4]: 20600 IU/mg
